Source: patent US20260022364A1, “ERT2 MUTANTS, INDUCIBLE CELL DEATH SYSTEMS, AND USES THEREOF” (Senti Biosciences, Inc., priority 2023, published 2026)

B1: SB06136: ZF10-1_p65_ERT2 mutant; L384M/L391V/N413D/M421L/S463P/H524L (protein)
chain: AGDMRAANLWPSPLMIKRSKKNSLALSLTADQMVSALLDAEPPILYSEYDPTRPFSEASMMGLLTNLADRELVHMINWAKRVPGFVDLTLHDQVHLLECAWMEILMIGVVWRSMEHPVKLLFAPNLLLDRDQGKCVEGLVEIFDMLLATSSRFRMMNLQGEEFVCLKSIILLNSGVYTFLPSTLKSLEEKDHIHRVLDKITDTLIHLMAKAGLTLQQQHQRLAQLLLILSHIRHMSNKGMELLYSMKCKNVVPLYDLLLEAADAHRLHAPTSRGGASVEETDQSHLATAGSTSSHSLQKYYITGEAEGFPAT
B2: SB07351: suicide-switch construct ERT2*mut-Casp9-IRES-RFP with mut81 (protein)
chain: B1 chain

Columns and labels:
Format in all cases: cell-based
[1] = test system: dimerization of two modified ER-LBDs; experiment: Transcriptional reporter assay for dimerization activity; conditions: data not shown
NK cells = experiment: Validation of ERT2 mutants with mCherry reporter in NK cells; conditions: primary NK cells
Protocol: After 10 days of feeder cell activation, NK cells were co-transduced with ERT2 mutant virus and reporter SB01066 virus (Experimental Set-up 1). On Day 2 after transduction, transduced NK cells were treated with endoxifen or 4-OHT at a range of concentrations of 0 nM, 0.01 nM, 0.1 nM, 1 nM, and 10 nM. On Day 4, cells were checked for mCherry expression by flow cytometry.

HEK293T cells [2] = experiment: Suicide-switch assay, killing efficiency by incucyte; conditions: for killing efficiency: 48 hours
Protocol: A 24-well dish was seeded with 25,000 Lent-X HEK293T cells (Takara, Catalog #: 632180). The next day, the cells were transduced with 25,000 pg of virus for constructs SB07351-SB07354: ERT2mut-casp9 constructs tagged with mCherry to track successfully transduced cells in a population. The constructs each take the form ERT2*mut-Casp9-IRES-RFP (SB07351=mut81; SB07352=mut88; SB07353=mut63; SB07354=mut41). The next day, transduced cells were split into a 96-well plate with ˜5,000 cells in each well and loaded into an incucyte to quantify cell expansion via images every 2 hours detecting mCherry expression. Media was exchanged 24 hours later with new media with indicated concentration of 4-OHT or no drug added. Cells continued to be imaged by the incucyte every 2 hours for 48 hours post exchange of media.
Cell death was quantified via detection of suicide-switch linked mCherry expression using the following formula:
Killing efficiency=100−((mCherry expression in drug treated population)/(mCherry expression in ND population)) [NOTE: mCherry background prevents 100% KE from being calculated; >95% killing efficiency is considered complete killing in this assay]

primary T cells = experiment: Killing assay of safety kill switch in transduced primary T cells
Protocol: Primary T cells isolated from a donor were thawed and stimulated with Dynabeads for 24 hours. Next, ERT2*mut81-Casp9-IRES-RFP (SB07351, prepared as lentivirus) was transduced into the T cells. Two days post transduction, cell media were replaced with T Cell media containing IL-2 to promote expansion. 1 week post transduction, cells were quantified for transduction efficiency (Safety kill switch transduction was tracked by expression of RFP tag) by flow cytometry and then loaded into incucyte for quantification of killing efficiency.
• D0-D1: Expansion of cells in drug free T cell media (with IL-2) • D1-onward: Drug free T cell media (with IL-2) was exchanged with media containing indicated drug conditions (as well as IL-2) • Killing efficiency was calculated by the following formula:
1−(RFP expression of cells in drug treated conditions)/(RFP expression of transduced cells in the No Drug condition)

HEK293T cells [3] = experiment: Time course of ERT2 mutant safety switch activity in HEK cells
Protocol: Twenty-four hours later, ˜3k transduced cells were plated into each well of a 96w plate and cultured in 100 μL of drug-free growth media (DMEM+10% FBS, 1% p-s, 1% Glutamax).
Killing efficiency was calculated by taking the average mCherry area quantified by the incucyte in the drug treated sample divided by the mCherry area quantified in the ND conditions of the same transduced population and subtracting that fraction from 1. 95% KE was defined as complete killing by previous studies with this same mCherry reporter being treated with Puromycin, a toxic drug that results in complete killing of HEK293T cells within 48 hours of application.

| Molecule | dimerization of two modified ER-LBDs to 4-OHT [1] | 4-OHT concentration at which variant was sensitive (mCherry) (NK cells) [nM] | endoxifen concentration at which variant was sensitive (mCherry) (NK cells) [nM] | killing efficiency (HEK293T cells [2]; 0.001 pM of 4-OHT) [%] | killing efficiency (HEK293T cells [2]; down to 0.01 pM of 4-OHT) [%] | concentration of efficient killing, fold lower than the Ctrough of 4-OHT in humans (HEK293T cells [2]; humans taking FDA approved daily dose of Tamoxifen) [×] | time to complete killing (primary T cells; 2.5 nM Endoxifen & 0.4 nM 4-OHT) [h] | cell killing without inducer (primary T cells; absence of the small molecule inducer cocktail) | sensitivity to Estradiol (primary T cells; day 5, Estradiol 2.2 pM) | killing efficiency (primary T cells; day 5, endoxifen 1 pM and higher) | killing efficiency (primary T cells; day 5, endoxifen as low as 0.001 pM) | sensitivity to Estradiol (primary T cells; over time, 2.2 pM Estradiol) | killing efficiency and rate compared to the WT ERT2 safety switch (HEK293T cells [3]; 0.25 nM endoxifen and 0.04 nM 4-OHT, 2.5 nM endoxifen+0.4 nM 4-OHT) | sensitivity to Estradiol (HEK293T cells [3]; 2.5 nM estradiol, long exposure times) |
| --- | --- | --- | --- | --- | --- | --- | --- | --- | --- | --- | --- | --- | --- | --- |
| B1 | did not directly alter dimerization | 0.1 | 0.1 | – | – | – | – | – | – | – | – | – | – | – |
| B2 | – | – | – | ~80 | > 95 | 400 | ≤ 48 | did not induce cell killing | insensitivity | >= 95% | Strong killing efficiency | insensitive | greater killing efficiency, and at a faster rate | modest activity at late time points |
